Data taken from patent publication US20100015637A1 (AbbVie / Abbott, published 2010).

How the values were obtained:
[1] = target: human PlGF-1 comprising amino acids 1-137 produced in human embryonic kidney cells (human) (UniProt P49763); assay: Format 3 Quantikine ELISA, capture MAb264, detection Pb264; sFlt-1 1533 pmol/L (ratio 50)
[2] = target: human PlGF-1 comprising amino acids 1-137 produced in human embryonic kidney cells (human) (UniProt P49763); assay: Format 2 …, capture MAb264, detection Pb264; sFlt-1 1227 pmol/L (ratio 40)
[3] = target: human PlGF-1 comprising amino acids 1-137 produced in human embryonic kidney cells (human) (UniProt P49763); assay: Format 1 …, capture 2-826-335, detection 1-255-713; sFlt-1 77 pmol/L (ratio 2.5)
[4] = target: human PlGF-1 comprising amino acids 1-137 produced in human embryonic kidney cells (human) (UniProt P49763); assay: Format 3 Quantikine ELISA, capture MAb264, detection Pb264; sFlt-1 1227 pmol/L (ratio 40)
[5] = target: T1, human PlGF-1 comprising amino acids 1-137 produced in human embryonic kidney cells (human, UniProt P49763 19-221); assay: … sandwich, capture MAb255, detection MAb826; antigen 1500 pg/mL
T1 construct: Mature human PlGF-1 with 6xHis tag; also called HEK (1-137); full length HEK human PlGF-1 (1-137)
T1 sequence: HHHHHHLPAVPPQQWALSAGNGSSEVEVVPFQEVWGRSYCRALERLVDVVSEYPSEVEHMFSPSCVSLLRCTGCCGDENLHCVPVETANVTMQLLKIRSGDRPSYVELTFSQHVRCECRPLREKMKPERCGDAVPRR
In short: (§1)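 Values are chemiluminescent relative light units (RLU) from a sandwich immunoassay of human PlGF-1 antigen preparations, some of them recombinant forms made in CHO cells. Antigen levels ran from 0 to 1500 pg/mL. Capture was by a monoclonal anti-human PlGF-1 antibody bound to magnetic microparticles, and detection was by an acridinium ester-labeled monoclonal anti-human PlGF-1 antibody.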

[6] = target: T2, CHO human PlGF-1 fragment (comprising amino acids 17-131; ATCC PTA-8540) (human, UniProt P49763 35-221); assay: as above
T2 sequence: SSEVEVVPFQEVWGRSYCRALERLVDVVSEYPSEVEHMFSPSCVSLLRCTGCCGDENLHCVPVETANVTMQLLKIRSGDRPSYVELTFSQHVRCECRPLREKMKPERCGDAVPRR
In short: as §1

[7] = target: T3, CHO human PlGF-1 comprising amino acids 1-137 (human PlGF-1-His (1-131), CHO 6305) (human, UniProt P49763 19-221, N-glycans at N21 (completely glycosylated) and N89 (partially glycosylated)); assay: as above
T3 construct: Mature human PlGF-1 with 6xHis tag (137 amino acids); also called CHO (1-137)
T3 sequence: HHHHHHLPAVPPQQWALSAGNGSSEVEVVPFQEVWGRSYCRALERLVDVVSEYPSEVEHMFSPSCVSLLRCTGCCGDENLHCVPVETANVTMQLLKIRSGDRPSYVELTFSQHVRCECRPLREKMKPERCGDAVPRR
In short: as §1

[8] = target: T4, human PlGF-1 fragment (comprising amino acids 17-131) produced in human embryonic kidney cells (human, UniProt P49763 35-221); assay: … sandwich, capture MAb255, detection pAb264; antigen 60 pg/mL
T4 sequence: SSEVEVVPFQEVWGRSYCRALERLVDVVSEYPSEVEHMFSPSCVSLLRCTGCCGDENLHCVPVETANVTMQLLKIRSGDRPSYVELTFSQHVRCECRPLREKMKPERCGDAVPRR

[9] = target: T1, human PlGF-1 comprising amino acids …; assay: as above
[10] = target: T2, CHO human PlGF-1 fragment (comprising …); assay: as above
[11] = target: T3, CHO human PlGF-1 comprising amino acids …; assay: as above
[12] = target: T4, human PlGF-1 fragment (comprising amino …); assay: … sandwich, capture MAb255, detection pAb264; antigen 1500 pg/mL
[13] = target: T1, human PlGF-1 comprising amino acids …; assay: as above
[14] = target: T3, CHO human PlGF-1 comprising amino acids …; assay: as above
[15] = target: T4, human PlGF-1 fragment (comprising amino …); assay: … sandwich, capture MAb826, detection pAb264; antigen 15 pg/mL
[16] = target: T1, human PlGF-1 comprising amino acids …; assay: as above
[17] = target: T2, CHO human PlGF-1 fragment (comprising …); assay: as above
[18] = target: T3, CHO human PlGF-1 comprising amino acids …; assay: as above

For “native sFlt-1, isolated from human placental tissue (from UniProt P17948 27-687) (receptor)”, the % Inhibition [1] was 52.1%, the PlGF-1 Measured [1] was 415 pg/mL and the % Inhibition [2] was 92.9%. The PlGF-1 Measured [2] was 55.5 pg/mL, the % Inhibition [3] was 41.9% and the PlGF-1 Measured [3] was 594 pg/mL. The % Inhibition [4] was 51.8% and the PlGF-1 Measured [4] was 417 pg/mL.

B1: monoclonal antibody 1-255-713 (produced by murine hybridoma cell line 1-255-713, ATCC PTA-8536) (antibody, mouse IgG2a, V domains shown)
VH: QVHLQQSGAELMKPGASVKISCKATGYTFSSYWIEWVKQRPGHGLEWIGEILPGSVSNNFNEKFKDKATLTADPSSNTAYIQVSSLTSEDSAVYYCARSTGFYYGGNYFDHWGQGTTLAVSS
VL: DVVMTQTPLSLPVSPGDQASISCRSSQSLVHSNGHTYLHWYLQKPGQSPKLLIYKVSNRFSGVPDRVSGSGSGTDFTLKISRVEAEDLGVYFCSQSTHVPPTFGGGTKLEIKR
notes: also called MAb255
Work on B1 yielded an RLU [5] of 1.52e+06 RLU, an RLU [6] of 750000 RLU and an RLU [7] of 734000 RLU. It also gave an RLU [8] of 107000 RLU, an RLU [9] of 165000 RLU and an RLU [10] of 81200 RLU. The RLU [11] was 71600 RLU, the RLU [12] was 1.62e+06 RLU and the RLU [13] was 2.14e+06 RLU. For the same molecule, the RLU [14] was 1.05e+06 RLU.

B2: monoclonal antibody 2-826-335 (produced by murine hybridoma cell line 2-826-335, ATCC PTA-8539) (antibody, mouse IgG1, V domains shown)
VH: QVQLKQSGPGLVQPSQSLSITCTVSGFSLTTYGIHWVRQSPGKGLEWLGVMWSGGDTDYDAAFISRLSISKDNSKSQVFFKMNSLQANDTGIYYCARYRFYGMDYWGQGTSVTVSS
VL: AIQMTQSSSSFSVSLGDRVTITCKASEDIYNRFAWYQQKPGNAPRLLISGAASLEAGVPSRFSGSGSGQDYTLSITSLQTEDVATYYCQQYWSTPWTFGGGTKLEIKR
notes: also called MAb826
In the case of B2, the RLU [15] is reported as 12800 RLU, the RLU [16] is reported as 15500 RLU and the RLU [17] is reported as 11200 RLU. For the same molecule, the RLU [18] was 10100 RLU.
